# PMC8319299
# Tests used:
# [1] = test system: PRC2 core (EZH2-EED-SUZ12-RBBP4) (Homo sapiens), Q15910-2+O75530+Q15022+Q09028; assay: EMSA; details: 50 mM Tris-HCl pH 7.5 (25 C), 100 mM KCl, 2 mM 2-mercaptoethanol, 0.1 mg/mL BSA, 0.05% NP-40; FA at 30 C; nucleosome EMSA with 5% glycerol at 4 C (+5 ng/uL …)
# [2] = test system: PRC2-PALI1 PIR (Homo sapiens), Q15910-2+O75530+Q15022+Q09028+Q96JN0-3; assay: EMSA; details: 50 mM Tris-HCl pH 7.5 (25 C), 100 mM KCl, 2 mM 2-mercaptoethanol, 0.1 mg/mL BSA, 0.05% NP-40; FA at 30 C; nucleosome EMSA with 5% glycerol at 4 C (+5 ng/uL …)
# [3] = test system: PRC2-PALI1 PIR-long (Homo sapiens), Q15910-2+O75530+Q15022+Q09028+Q96JN0-3; assay: EMSA; details: 50 mM Tris-HCl pH 7.5 (25 C), 100 mM KCl, 2 mM 2-mercaptoethanol, 0.1 mg/mL BSA, 0.05% NP-40; FA at 30 C; nucleosome EMSA with 5% glycerol at 4 C (+5 ng/uL …)
# [4] = biological target: EED (amino acids 40-441) (human) (UniProt O75530); assay: fluorescence polarisation; fluorescence anisotropy displacement titration: 2-fold serial dilutions of unlabelled peptide with 10 µM EED and 40 nM 5-FAM labelled JARID2-K116me3 peptide; same buffer, 30 °C; Kd of the unlabelled peptide from a fit
# EED (amino acids 40-441) (human), sequence (O75530 40-441): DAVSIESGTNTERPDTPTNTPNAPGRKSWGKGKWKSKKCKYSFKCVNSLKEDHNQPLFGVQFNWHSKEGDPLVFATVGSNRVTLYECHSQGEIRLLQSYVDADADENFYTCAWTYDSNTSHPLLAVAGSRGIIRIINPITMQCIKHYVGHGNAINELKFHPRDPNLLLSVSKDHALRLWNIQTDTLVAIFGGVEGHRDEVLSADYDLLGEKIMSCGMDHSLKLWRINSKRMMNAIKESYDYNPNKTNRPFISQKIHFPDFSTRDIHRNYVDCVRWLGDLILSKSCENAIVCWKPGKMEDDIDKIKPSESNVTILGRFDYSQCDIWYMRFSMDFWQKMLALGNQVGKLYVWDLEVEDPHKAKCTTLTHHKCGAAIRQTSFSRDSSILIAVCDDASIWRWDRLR
# PRC2 core (EZH2-EED-SUZ12-RBBP4) (Homo sapiens), Q15910-2+O75530+Q15022+Q09028, sequence (Q15910 other isoform, or with tags, fused parts or gaps, chain 1 of 4): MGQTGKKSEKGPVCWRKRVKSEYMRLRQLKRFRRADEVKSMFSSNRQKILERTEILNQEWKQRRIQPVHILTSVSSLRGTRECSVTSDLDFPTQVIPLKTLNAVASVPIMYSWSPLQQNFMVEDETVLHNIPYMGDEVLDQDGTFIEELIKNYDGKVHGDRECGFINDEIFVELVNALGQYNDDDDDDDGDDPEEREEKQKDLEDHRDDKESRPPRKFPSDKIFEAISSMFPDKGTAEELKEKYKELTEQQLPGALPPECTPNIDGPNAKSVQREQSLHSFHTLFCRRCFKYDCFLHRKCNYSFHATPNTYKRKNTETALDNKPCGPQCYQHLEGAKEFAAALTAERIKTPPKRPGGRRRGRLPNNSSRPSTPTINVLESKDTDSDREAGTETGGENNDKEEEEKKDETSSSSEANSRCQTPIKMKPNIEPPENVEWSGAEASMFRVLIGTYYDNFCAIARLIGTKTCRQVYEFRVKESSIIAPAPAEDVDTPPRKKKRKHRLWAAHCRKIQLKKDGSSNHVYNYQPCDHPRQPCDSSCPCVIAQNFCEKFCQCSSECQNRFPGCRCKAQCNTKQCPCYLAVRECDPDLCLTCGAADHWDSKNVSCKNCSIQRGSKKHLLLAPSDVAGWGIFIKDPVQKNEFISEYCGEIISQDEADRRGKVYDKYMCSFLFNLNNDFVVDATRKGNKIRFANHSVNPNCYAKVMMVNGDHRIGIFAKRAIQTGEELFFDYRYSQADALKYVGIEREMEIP
# PRC2 core (EZH2-EED-SUZ12-RBBP4) (Homo sapiens), Q15910-2+O75530+Q15022+Q09028, sequence (O75530 whole entry, chain 2 of 4): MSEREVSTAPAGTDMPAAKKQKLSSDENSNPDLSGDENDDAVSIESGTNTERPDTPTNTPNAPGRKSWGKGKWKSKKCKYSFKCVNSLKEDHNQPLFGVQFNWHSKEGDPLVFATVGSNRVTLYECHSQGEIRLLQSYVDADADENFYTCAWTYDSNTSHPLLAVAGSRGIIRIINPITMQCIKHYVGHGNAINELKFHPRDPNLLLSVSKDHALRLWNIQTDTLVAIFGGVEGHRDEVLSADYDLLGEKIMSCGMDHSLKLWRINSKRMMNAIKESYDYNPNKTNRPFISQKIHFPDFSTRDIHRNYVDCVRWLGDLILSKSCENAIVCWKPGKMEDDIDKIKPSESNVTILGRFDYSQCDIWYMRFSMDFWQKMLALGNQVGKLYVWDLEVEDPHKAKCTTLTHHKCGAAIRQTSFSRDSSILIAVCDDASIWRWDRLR
# PRC2 core (EZH2-EED-SUZ12-RBBP4) (Homo sapiens), Q15910-2+O75530+Q15022+Q09028, sequence (Q15022 whole entry, chain 3 of 4): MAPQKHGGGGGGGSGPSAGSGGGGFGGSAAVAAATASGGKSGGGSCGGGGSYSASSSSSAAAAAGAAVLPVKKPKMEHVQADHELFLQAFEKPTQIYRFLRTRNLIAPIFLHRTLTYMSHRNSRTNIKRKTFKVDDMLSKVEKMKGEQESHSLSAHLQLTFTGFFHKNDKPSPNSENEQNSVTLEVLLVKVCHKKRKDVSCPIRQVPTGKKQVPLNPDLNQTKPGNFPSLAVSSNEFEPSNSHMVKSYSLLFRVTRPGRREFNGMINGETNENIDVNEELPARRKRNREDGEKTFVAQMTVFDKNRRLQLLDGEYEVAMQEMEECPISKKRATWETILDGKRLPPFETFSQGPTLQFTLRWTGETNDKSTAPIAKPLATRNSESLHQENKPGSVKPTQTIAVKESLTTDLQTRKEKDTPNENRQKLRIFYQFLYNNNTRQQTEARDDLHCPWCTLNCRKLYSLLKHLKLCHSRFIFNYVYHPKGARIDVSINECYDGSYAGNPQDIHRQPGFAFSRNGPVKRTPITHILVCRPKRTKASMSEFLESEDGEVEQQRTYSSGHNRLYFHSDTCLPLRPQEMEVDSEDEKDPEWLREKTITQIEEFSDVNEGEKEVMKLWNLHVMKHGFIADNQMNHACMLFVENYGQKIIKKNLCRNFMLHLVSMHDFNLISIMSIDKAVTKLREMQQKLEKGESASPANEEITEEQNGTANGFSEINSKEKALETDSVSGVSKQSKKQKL
# PRC2 core (EZH2-EED-SUZ12-RBBP4) (Homo sapiens), Q15910-2+O75530+Q15022+Q09028, sequence (Q09028 whole entry, chain 4 of 4): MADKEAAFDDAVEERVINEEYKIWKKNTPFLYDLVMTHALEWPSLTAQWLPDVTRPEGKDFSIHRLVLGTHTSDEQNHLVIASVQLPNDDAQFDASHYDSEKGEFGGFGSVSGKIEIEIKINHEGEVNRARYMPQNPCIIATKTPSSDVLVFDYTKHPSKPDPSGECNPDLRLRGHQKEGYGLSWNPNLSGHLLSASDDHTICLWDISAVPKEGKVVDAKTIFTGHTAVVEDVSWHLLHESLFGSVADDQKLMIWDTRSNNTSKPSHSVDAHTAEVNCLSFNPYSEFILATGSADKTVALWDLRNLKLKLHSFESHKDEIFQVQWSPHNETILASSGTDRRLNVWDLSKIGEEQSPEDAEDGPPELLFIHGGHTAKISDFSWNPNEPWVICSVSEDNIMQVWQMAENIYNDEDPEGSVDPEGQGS
Substance,Kd [1],Kd [2],further results
"ACCTCGCGAATGCATCTAGATGATATCGAGAATCCCGGTGCCGAGGCCGCTCAATTGGTCGTAGACAGCTCTAGCACCGCTTAAACGCACGTACGCGCTGTCCCCCGCGTTTTAACCGCCAAGGGGATTACTCCCTAGTCTCCAGGCACGTGTCAGATATATACATCCGATATCGGCGCCCT (double strand) [NCP182, H2A-Cy5]",1410 nM,17.1 nM,–
"CTGGAGAATCCCGGTGCCGAGGCCGCTCAATTGGTCGTAGACAGCTCTAGCACCGCTTAAACGCACGTACGCGCTGTCCCCCGCGTTTTAACCGCCAAGGGGATTACTCCCTAGTCTCCAGGCACGTGTCAGATATATACATCCTGT (double strand) [NCP147, H2A-Cy5]",2560 nM,48.5 nM,–
"ACCTCGCGAATGCATCTAGATGATATCGAGAATCCCGGTGCCGAGGCCGCTCAATTGGTCGTAGACAGCTCTAGCACCGCTTAAACGCACGTACGCGCTGTCCCCCGCGTTTTAACCGCCAAGGGGATTACTCCCTAGTCTCCAGGCACGTGTCAGATATATACATCCGATATCGGCGCCCT (double strand) [mononucleosome 182 bp, Cy5-DNA]",330 nM,–,Kd [3]: 19 nM
PALI2-K1558me3 peptide,–,–,Kd [4]: 8810 nM
PALI1-K1214me3 peptide,–,–,fold lower affinity than PALI1-K1219me3 and PALI1-K1241me3 [4]: 4 fold
